In patent US20070225241A1 one finds average molar ratio of Gdown1 to Rpb5 in FI RNAPII data, which are given here for one substance.

This assay addresses calf thymus RNA Polymerase II (12-subunit enzyme, Form II; core of Form I) (bovine (calf thymus)). The experiment in a line: quantification of seven Coomassie stained SDS-PAGE gel bands of purified or reconstituted FI RNAPII.

“native calf thymus Gdown1 (41 kD polypeptide of Form I RNAPII) (from UniProt Q17QE3 1-370)”: the average molar ratio of Gdown1 to Rpb5 in FI RNAPII stood at 1 molar ratio.
